Laboratory results reported in patent US20130143953A1 (TRUSTEES OF TUFTS COLLEGE, published 2013).

Legend:
[1] = molecular target: human membrane attack complex (C5b-9) formed from normal human serum on mouse cells (human) (UniProt P01031); experiment: cell-based or functional assay
[2] = molecular target: human membrane attack complex (C5b-9) formed from normal human serum on mouse cells (human, UniProt P01031 752-1676; P13671 22-934; P10643 23-843; P07357 31-584; P07358 55-591; …); experiment: cell-based or functional assay

complement mediated cell lysis (PI uptake, FACS; hepa-1c1c7 cells, 1000 vp/cell AdCAGCD59, 1% NHS) [1] [%]	fold reduction of complement mediated cell lysis (PI uptake, FACS; hepa-1c1c7 cells, 1000 vp/cell AdCAGCD59, 1% NHS) [1] [fold]	inhibition of cell lysis at 250 vp/cell AdCAGCD59 (hepa-1c1c7 cells, NHS) [1] [%]	inhibition of cell lysis at 500 vp/cell AdCAGCD59 (hepa-1c1c7 cells, NHS) [1] [%]	reduction in MAC immunofluorescence intensity on mouse corneal endothelium (ex vivo, 50% NHS, 20 minutes) [1] [%]	reduction in MAC immunofluorescence on mouse eyecups, 7.5 minutes NHS [1] [%]	reduction in MAC immunofluorescence on mouse eyecups, 15 minutes NHS [1] [%]	reduction in mean MAC immunofluorescence intensity on mouse eyecup RPE at the area of GFP expression [1] [%]	protection against cell lysis relative to AdCAGGFP-conditioned media with NHS (Hepa-1c1c7 cells) [2] [%]	Binder
12.3	8	> 50	> 70	86	68	56	55	–	human CD59, GPI-anchored membrane form expressed from the AdCAGCD59 vector (protein, UniProt P13987 26-102, looked up, glycosyl phosphatidyl inositol (GPI) anchor at asparagine 77 of the mature protein; N-glycosylated) LQCYNCPNPTADCKTAVNCSSDFDACLITKAGLQVYNKCWKFEHCNFNDVTTRLRENELTYYCCKKDLCNFNEQLEN
–	–	–	–	–	–	–	–	34.1	membrane-independent (soluble) human CD59 lacking the C-terminal 26 amino acids, expressed from AdCAGsCD59 or AAVCAGsCD59 (other, N-glycosylated forms (14-18 kDa)) LQCYNCPNPTADCKTAVNCSSDFDACLITKAGLQVYNKCWKFEHCNFNDVTTRLRENELTYYCCKKDLCNFNEQLEN
